Data published in patent US20110189178A1.

What was measured:
[1] = target: recombinant human FcγRIIb (R&D Systems) (human) (UniProt P31994); experiment: Biacore SPR, global Langmuir fit (mean ± SD, n = 4)
[2] = target: recombinant human FcγRIIb (R&D Systems) (human) (UniProt P31994); experiment: Biacore SPR
[3] = target: FcγRIIb on the cell surface (UniProt P31994); experiment: binding to FcγRIIb on the cell surface
FcγRI (human) [4] = target: FcγRI (human) (UniProt P12314); experiment: Biacore SPR [cont.]
FcγRIIaH (human) [5] = target: FcγRIIaH (human) (UniProt P12318); experiment: Biacore SPR [cont.]
[6] = target: recombinant human FcγRIIb (R&D Systems) (human) (UniProt P31994); experiment: Biacore SPR [cont.]
[7] = target: human FcγRIIIa, V158 isoform (human) (UniProt P08637); experiment: Biacore SPR [cont.]
FcγRIIIaF (human) [8] = target: FcγRIIIaF (human) (UniProt P08637); experiment: Biacore SPR
FcγRIIaR (human) [9] = target: FcγRIIaR (human) (UniProt P12318); experiment: Biacore SPR
FcγRI (human) [10] = target: FcγRI (human) (UniProt P12314); experiment: Biacore SPR
FcγRIIaH (human) [11] = target: FcγRIIaH (human) (UniProt P12318); experiment: Biacore SPR
[12] = target: human FcγRIIIa, V158 isoform (human) (UniProt P08637); experiment: Biacore SPR
FcγRIIIaF (human) [13] = target: FcγRIIIaF (human) (UniProt P08637); experiment: Biacore SPR [cont.]
FcγRIIaR (human) [14] = target: FcγRIIaR (human) (UniProt P12318); experiment: Biacore SPR [cont.]

FcγRIIIaF (human), sequence (P08637 17-208 limits assumed): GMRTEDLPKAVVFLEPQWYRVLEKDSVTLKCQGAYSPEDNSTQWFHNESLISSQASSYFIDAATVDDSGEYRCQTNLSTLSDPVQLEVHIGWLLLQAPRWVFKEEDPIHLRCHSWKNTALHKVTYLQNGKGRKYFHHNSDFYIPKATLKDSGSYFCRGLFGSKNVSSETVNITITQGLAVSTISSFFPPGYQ
recombinant human FcγRIIb (R&D Systems) (human), sequence (P31994 46-217 limits assumed): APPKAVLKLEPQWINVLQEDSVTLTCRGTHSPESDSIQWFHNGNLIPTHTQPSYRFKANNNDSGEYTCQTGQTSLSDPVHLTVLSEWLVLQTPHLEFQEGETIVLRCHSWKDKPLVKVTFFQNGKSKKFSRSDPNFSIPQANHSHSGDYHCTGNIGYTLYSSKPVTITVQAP
FcγRIIb on the cell surface, sequence (P31994 43-310 limits assumed): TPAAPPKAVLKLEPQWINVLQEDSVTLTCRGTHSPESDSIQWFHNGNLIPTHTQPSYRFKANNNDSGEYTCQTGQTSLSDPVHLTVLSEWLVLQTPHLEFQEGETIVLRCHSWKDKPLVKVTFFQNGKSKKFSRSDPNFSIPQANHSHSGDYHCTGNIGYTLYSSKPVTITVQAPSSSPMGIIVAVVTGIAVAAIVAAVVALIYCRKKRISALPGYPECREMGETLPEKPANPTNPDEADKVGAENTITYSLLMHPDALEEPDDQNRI
FcγRI (human), sequence (P12314 16-288 limits assumed): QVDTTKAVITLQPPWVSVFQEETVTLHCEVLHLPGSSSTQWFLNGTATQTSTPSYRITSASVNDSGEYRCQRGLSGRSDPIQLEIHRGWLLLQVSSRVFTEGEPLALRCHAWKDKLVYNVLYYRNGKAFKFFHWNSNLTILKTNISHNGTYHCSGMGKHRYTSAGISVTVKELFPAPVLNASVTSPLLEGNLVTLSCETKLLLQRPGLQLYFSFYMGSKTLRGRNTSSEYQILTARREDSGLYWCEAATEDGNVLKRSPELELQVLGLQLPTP
FcγRIIaH (human), sequence (P12318 34-217): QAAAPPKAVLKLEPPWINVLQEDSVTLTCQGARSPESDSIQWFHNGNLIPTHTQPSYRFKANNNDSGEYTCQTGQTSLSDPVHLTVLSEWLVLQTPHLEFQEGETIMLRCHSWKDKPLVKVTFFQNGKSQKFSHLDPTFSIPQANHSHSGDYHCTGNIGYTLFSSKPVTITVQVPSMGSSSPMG
human FcγRIIIa, V158 isoform (human), sequence (P08637 17-208 F176V limits assumed): as the sequence (P08637 17-208 limits assumed) above, with F160V counted along it

Row | Substance | Kd [1] [nM] | Fold (KD native IgG1/KD variant) [2] [fold] | EC50 [3] [nM] | Kd (FcγRI (human) [4]) [nM] | Kd (FcγRIIaH (human) [5]) [nM] | Kd [6] [nM] | Kd [7] [nM] | Kd (FcγRIIaR (human) [14]) [nM] | Fold (against native IgG1) [3] [fold] | also measured
1 | L328F (antibody) | 640 | – | – | – | – | – | – | – | – | –
2 | Native IgG1 (antibody) | 1800 | – | 440 | – | – | – | – | – | – | Kd (FcγRIIIaF (human) [8]): 1350 nM; Kd (FcγRIIaR (human) [9]): 859 nM; Kd (FcγRI (human) [10]): 0.329 nM; Kd (FcγRIIaH (human) [11]): 646 nM; Kd [2]: 1470 nM; Kd [12]: 191 nM
3 | S239D/I332E (antibody) | – | – | – | 0.0374 | 163 | 101 | – | 68.6 | – | Kd (FcγRIIIaF (human) [13]): 28.2 nM
4 | S267E (antibody) | – | 30 | 25 | – | – | – | – | – | 18 | –

Second part, led by results:

Row | Kd [1] [nM] | Fold (KD native IgG1/KD variant) [2] [fold] | EC50 [3] [nM] | Kd (FcγRI (human) [4]) [nM] | Kd (FcγRIIaH (human) [5]) [nM] | Kd [6] [nM] | Kd [7] [nM] | Kd (FcγRIIaR (human) [14]) [nM] | Fold (against native IgG1) [3] [fold] | Substance | also measured
5 | 1000 | 1.8 | – | – | – | – | – | – | – | G236D (antibody) | –
6 | 25 | – | 6 | 3.71 | 2730 | 26.6 | 579 | – | – | G236D/S267E (antibody) | –
7 | 380 | – | – | – | – | – | – | – | – | S239D (antibody) | –
8 | 12 | 150 | 2 | 0.0142 | 510 | 13.3 | 51.2 | 7.16 | 220 | S239D/S267E (antibody) | Fold (FcγRIIIaF (human) [13]): 2.62; Kd (FcγRIIIaF (human) [13]): 516 nM; Fold (FcγRIIaR (human) [14]): 120; Fold (FcγRI (human) [4]): 23.2; Fold (FcγRIIaH (human) [5]): 1.27; Fold [6]: 111; Fold [7]: 3.74
9 | 4.2 | 430 | 1.4 | 0.22 | 923 | 6.06 | 5040 | 3.12 | 320 | S267E/L328F (antibody) | Fold (FcγRIIaR (human) [14]): 275; Fold (FcγRI (human) [4]): 1.5; Fold (FcγRIIaH (human) [5]): 0.7; Fold [6]: 242; Fold [7]: 0.038
